Assays:
Assay in all cases: holdup assay
Parameters in all cases: key: below the threshold = too weak to quantify, mostly under pKd 3.1 to 4
Details in all cases: plain residues with an end cap or a label only (N-terminal biotin on a linker: ado-ado)
APBA1_1, Q02410 = molecular target: T1, APBA1_1, Q02410
T1 sequence (Q02410 651-752, limits assumed, looked up): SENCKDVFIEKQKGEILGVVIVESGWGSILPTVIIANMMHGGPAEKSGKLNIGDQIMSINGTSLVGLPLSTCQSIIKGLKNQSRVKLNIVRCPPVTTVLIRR

ARHGEF12, Q9NZN5-2 = molecular target: ARHGEF12, Q9NZN5-2
DLG2_2, Q15700 = molecular target: DLG2_2, Q15700
DLG3_2, Q92796 = molecular target: T2, DLG3_2, Q92796
T2 sequence (Q92796 221-321, limits assumed, looked up): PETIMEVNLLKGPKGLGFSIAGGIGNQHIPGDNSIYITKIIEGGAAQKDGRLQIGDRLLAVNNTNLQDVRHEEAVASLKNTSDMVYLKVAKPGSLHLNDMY

DLG3_3, Q92796 = molecular target: T3, DLG3_3, Q92796
T3 sequence (Q92796 374-475, limits assumed, looked up): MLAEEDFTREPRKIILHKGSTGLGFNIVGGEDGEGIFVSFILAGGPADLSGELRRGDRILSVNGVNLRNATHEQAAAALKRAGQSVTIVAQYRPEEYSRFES

DLG4_3, P78352 = molecular target: DLG4_3, P78352
DLG5_1, Q8TDM6 = molecular target: DLG5_1, Q8TDM6
FRMPD4, Q14CM0 = molecular target: FRMPD4, Q14CM0
GORASP2, Q9H8Y8 = molecular target: GORASP2, Q9H8Y8
GRASP, Q7Z6J2 = molecular target: GRASP, Q7Z6J2
GRIP1_5, Q9Y3R0 = molecular target: T4, GRIP1_5, Q9Y3R0
T4 sequence (Q9Y3R0 568-668, limits assumed, looked up): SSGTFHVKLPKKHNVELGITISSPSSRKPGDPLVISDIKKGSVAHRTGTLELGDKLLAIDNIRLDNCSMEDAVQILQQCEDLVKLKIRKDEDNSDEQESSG

IL16_1, Q14005 = molecular target: IL16_1, Q14005
LDB3, O75112 = molecular target: LDB3, O75112
LIN7A, O14910 = molecular target: T5, LIN7A, O14910
T5 sequence (O14910 103-200, limits assumed, looked up): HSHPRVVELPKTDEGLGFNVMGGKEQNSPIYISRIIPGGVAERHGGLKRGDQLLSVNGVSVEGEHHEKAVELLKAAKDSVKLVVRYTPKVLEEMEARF

MAGI1_2, Q96QZ7 = molecular target: MAGI1_2, Q96QZ7
MAGI2_2, Q86UL8 = molecular target: MAGI2_2, Q86UL8
MAGI2_3, Q86UL8 = molecular target: MAGI2_3, Q86UL8
MAGI3_2, Q5TCQ9 = molecular target: MAGI3_2, Q5TCQ9
MPDZ_5, O75970 = molecular target: T6, MPDZ_5, O75970
T6 sequence (O75970 695-796, limits assumed, looked up): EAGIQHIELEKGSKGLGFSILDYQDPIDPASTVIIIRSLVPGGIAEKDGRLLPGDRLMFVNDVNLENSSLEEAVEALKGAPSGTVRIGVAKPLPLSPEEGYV

MPP6, Q9NZW5 = molecular target: T7, MPP6, Q9NZW5
T7 sequence (Q9NZW5 125-219, limits assumed, looked up): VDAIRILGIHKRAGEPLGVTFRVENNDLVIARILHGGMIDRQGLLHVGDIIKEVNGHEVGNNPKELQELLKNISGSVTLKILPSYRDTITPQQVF

PDLIM1, O00151 = molecular target: PDLIM1, O00151
RADIL, Q96JH8 = molecular target: T8, RADIL, Q96JH8
T8 sequence (Q96JH8 971-1071, limits assumed, looked up): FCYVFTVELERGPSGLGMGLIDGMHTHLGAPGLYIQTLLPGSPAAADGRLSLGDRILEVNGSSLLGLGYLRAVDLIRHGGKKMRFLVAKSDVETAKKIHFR

SCRIB_2, Q14160 = molecular target: SCRIB_2, Q14160
SCRIB_3, Q14160 = molecular target: SCRIB_3, Q14160
SHANK1, Q9Y566 = molecular target: T9, SHANK1, Q9Y566
T9 sequence (Q9Y566 658-767, limits assumed, looked up): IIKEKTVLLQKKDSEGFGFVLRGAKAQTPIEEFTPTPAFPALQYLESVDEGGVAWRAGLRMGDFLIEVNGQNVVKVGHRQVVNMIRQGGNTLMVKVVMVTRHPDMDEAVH

SIPA1L2, Q9P2F8 = molecular target: T10, SIPA1L2, Q9P2F8
T10 sequence (Q9P2F8 945-1036, limits assumed, looked up): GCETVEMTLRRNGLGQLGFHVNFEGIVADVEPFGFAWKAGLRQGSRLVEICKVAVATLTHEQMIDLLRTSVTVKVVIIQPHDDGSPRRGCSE

TJP1_2, Q07157 = molecular target: TJP1_2, Q07157
TJP2_1, Q9UDY2 = molecular target: TJP2_1, Q9UDY2

Measured: pKd

Chain of ARHGEF12, Q9NZN5-2 (Q9NZN5 other isoform, or with tags, fused parts or gaps): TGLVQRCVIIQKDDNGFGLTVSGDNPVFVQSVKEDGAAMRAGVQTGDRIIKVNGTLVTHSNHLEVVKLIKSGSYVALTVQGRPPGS
Chain of FRMPD4, Q14CM0 (Q14CM0 67-160): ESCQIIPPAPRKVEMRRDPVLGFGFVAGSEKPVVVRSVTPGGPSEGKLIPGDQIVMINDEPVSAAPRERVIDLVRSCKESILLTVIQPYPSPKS
Chain of GRASP, Q7Z6J2 (Q7Z6J2 96-193): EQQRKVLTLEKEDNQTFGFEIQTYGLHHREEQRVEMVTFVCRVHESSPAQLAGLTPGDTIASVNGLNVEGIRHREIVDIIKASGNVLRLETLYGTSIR
Chain of PDLIM1, O00151 (O00151 1-87): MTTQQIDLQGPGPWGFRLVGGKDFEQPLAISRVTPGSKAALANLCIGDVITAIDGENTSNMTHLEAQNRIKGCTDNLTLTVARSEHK
Chain of LDB3, O75112 (O75112 1-94): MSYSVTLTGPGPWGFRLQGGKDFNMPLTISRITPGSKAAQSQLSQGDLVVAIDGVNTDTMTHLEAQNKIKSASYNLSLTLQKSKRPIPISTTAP
Chain of SCRIB_3, Q14160 (Q14160 999-1103): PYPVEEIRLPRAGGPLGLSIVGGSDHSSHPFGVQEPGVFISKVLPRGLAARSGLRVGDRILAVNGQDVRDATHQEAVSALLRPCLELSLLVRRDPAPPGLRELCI
Chain of MAGI1_2, Q96QZ7 (Q96QZ7 456-580): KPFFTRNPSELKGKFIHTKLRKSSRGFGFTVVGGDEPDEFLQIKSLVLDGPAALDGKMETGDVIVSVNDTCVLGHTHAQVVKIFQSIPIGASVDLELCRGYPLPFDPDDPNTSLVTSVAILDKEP
Chain of SCRIB_2, Q14160 (Q14160 857-960): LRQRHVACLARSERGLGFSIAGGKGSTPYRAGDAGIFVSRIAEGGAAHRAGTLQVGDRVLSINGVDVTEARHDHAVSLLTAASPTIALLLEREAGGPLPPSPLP
Chain of TJP2_1, Q9UDY2 (Q9UDY2 24-128): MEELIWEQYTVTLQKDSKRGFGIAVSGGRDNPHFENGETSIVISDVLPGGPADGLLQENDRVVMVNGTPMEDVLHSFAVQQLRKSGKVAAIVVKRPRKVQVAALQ
Chain of MAGI2_2, Q86UL8 (Q86UL8 410-522): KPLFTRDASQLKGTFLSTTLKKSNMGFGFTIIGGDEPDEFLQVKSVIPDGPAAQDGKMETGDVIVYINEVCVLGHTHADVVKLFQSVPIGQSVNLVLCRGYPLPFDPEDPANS
Chain of DLG2_2, Q15700 (Q15700 189-283): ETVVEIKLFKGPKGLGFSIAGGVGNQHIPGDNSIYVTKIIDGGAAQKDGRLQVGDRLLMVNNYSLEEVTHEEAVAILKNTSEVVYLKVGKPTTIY
Chain of IL16_1, Q14005 (Q14005 210-306): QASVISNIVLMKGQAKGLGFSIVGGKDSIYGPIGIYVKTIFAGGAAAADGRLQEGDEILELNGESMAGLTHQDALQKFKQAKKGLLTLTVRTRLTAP
Chain of MAGI3_2, Q5TCQ9 (Q5TCQ9 398-503): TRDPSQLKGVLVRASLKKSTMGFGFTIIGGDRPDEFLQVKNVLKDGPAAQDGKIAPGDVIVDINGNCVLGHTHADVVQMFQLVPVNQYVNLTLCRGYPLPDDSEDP
Chain of TJP1_2, Q07157 (Q07157 181-274): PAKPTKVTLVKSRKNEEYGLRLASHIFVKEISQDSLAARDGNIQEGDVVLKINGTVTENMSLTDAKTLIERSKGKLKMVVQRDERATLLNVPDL
Chain of DLG4_3, P78352 (P78352 306-403): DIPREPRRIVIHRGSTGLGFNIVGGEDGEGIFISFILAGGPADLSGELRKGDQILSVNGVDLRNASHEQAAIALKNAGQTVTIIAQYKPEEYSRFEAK
Chain of DLG5_1, Q8TDM6 (Q8TDM6 617-713): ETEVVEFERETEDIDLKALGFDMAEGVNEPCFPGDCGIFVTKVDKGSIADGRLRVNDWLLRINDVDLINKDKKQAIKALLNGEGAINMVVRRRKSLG
Chain of MAGI2_3, Q86UL8 (Q86UL8 600-682): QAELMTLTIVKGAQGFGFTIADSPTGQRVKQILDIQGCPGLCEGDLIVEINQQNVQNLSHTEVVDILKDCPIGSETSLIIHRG

DSEEELPTRL [GRK6, P43250]
3.66: DLG3_2, Q92796
4.16: GRASP, Q7Z6J2
4.71: SHANK1, Q9Y566
4.39: FRMPD4, Q14CM0
3.53: SCRIB_3, Q14160
3.54: MAGI2_2, Q86UL8
3.57: ARHGEF12, Q9NZN5-2
below the threshold: all other assays above

KPDKQEEFYA [SDC3, O75056]
3.77: MPP6, Q9NZW5
4.05: DLG3_2, Q92796
3.49: FRMPD4, Q14CM0
below the threshold: all other assays above

FVFESRKEIL [TBPL1, P62380]
3.53: MPP6, Q9NZW5
4.72: GRASP, Q7Z6J2
below the threshold: all other assays above

PLATCDETSI [SEMA4F, O95754]
4.39: SCRIB_2, Q14160
4.81: SCRIB_3, Q14160
3.87: SHANK1, Q9Y566
3.81: ARHGEF12, Q9NZN5-2
4.3: DLG3_2, Q92796
below the threshold: all other assays above

GTMFLRETSL [GUCY1A2, P33402]
4.51: DLG3_2, Q92796
5.37: SCRIB_3, Q14160
4.73: GRASP, Q7Z6J2
4.46: MAGI3_2, Q5TCQ9
4.47: IL16_1, Q14005
4.23: DLG2_2, Q15700
3.71: MAGI2_3, Q86UL8
3.78: PDLIM1, O00151
4.24: MAGI1_2, Q96QZ7
4.64: DLG3_3, Q92796
4.93: ARHGEF12, Q9NZN5-2
4.86: DLG4_3, P78352
4.35: FRMPD4, Q14CM0 | LIN7A, O14910
4.29: MAGI2_2, Q86UL8
5.15: SCRIB_2, Q14160
4.33: SHANK1, Q9Y566
below the threshold: all other assays above
